Laboratory results as given in article PMC9253114, “Structures and gating mechanisms of human bestrophin anion channels” (Nature Communications, 2022).

B1: wild-type human bestrophin-2 (natural protein, UniProt Q8NFU1 1-509, looked up)
chain: MTVTYTARVANARFGGFSQLLLLWRGSIYKLLWRELLCFLGFYMALSAAYRFVLTEGQKRYFEKLVIYCDQYASLIPVSFVLGFYVTLVVNRWWSQYLCMPLPDALMCVVAGTVHGRDDRGRLYRRTLMRYAGLSAVLILRSVSTAVFKRFPTIDHVVEAGFMTREERKKFENLNSSYNKYWVPCVWFSNLAAQARREGRIRDNSALKLLLEELNVFRGKCGMLFHYDWISVPLVYTQVVTIALYSYFLACLIGRQFLDPAQGYKDHDLDLCVPIFTLLQFFFYAGWLKVAEQLINPFGEDDDDFETNFLIDRNFQVSMLAVDEMYDDLAVLEKDLYWDAAEARAPYTAATVFQLRQPSFQGSTFDITLAKEDMQFQRLDGLDGPMGEAPGDFLQRLLPAGAGMVAGGPLGRRLSFLLRKNSCVSEASTGASCSCAVVPEGAAPECSCGDPLLDPGLPEPEAPPPAGPEPLTLIPGPVEPFSIVTMPGPRGPAPPWLPSPIGEEEENLA
notes: human bestrophin-2 (hBest2), wild type; also called hBest2; WT hBest2; source: HEK293-F cells, Bacmam system, purified (GDN extraction, Ni-NTA, TEV cleavage, gel filtration)
B2: hBest1_(1–345) (domain or fragment, human, UniProt O76090 1-345, looked up)
chain: MTITYTSQVANARLGSFSRLLLCWRGSIYKLLYGEFLIFLLCYYIIRFIYRLALTEEQQLMFEKLTLYCDSYIQLIPISFVLGFYVTLVVTRWWNQYENLPWPDRLMSLVSGFVEGKDEQGRLLRRTLIRYANLGNVLILRSVSTAVYKRFPSAQHLVQAGFMTPAEHKQLEKLSLPHNMFWVPWVWFANLSMKAWLGGRIRDPILLQSLLNEMNTLRTQCGHLYAYDWISIPLVYTQVVTVAVYSFFLTCLVGRQFLNPAKAYPGHELDLVVPVFTFLQFFFYVGWLKVAEQLINPFGEDDDDFETNWIVDRNLQVSLLAVDEMHQDLPRMEPDMYWNKPEPQP
notes: also called hBEST1 345; AS truncated hBest1; source: HEK293-F cells, Bacmam system, purified (GDN extraction, Ni-NTA, TEV cleavage, gel filtration)
B3: bBest2_(1–345) (domain or fragment, bovine, UniProt E1BF86 1-345, looked up)
chain: MTVTYTARVAKARFGGFSKLLLLWRGSIYKLLWRELLCFLGLFMALSAAYRFVLTEEQKRYFEKLVLYCDRYASLIPVSFVLGFYVTLVVHRWWNQYLSMPLTDALMCVVVGTVHGHDERGRLYRRTLMRYAGLSGVLILRSVSTAVFKRFPTIDHVVEAGFMTREERKKFENLNSSYNKYWVPCVWFCNLAAQARREGRIRDNGAFKLLLEELNVFRSKCGMLFHYDWISVPLVYTQVVTIAVYSYFLACLIGRQFLDPAQGYKDHDLDLCVPIFTLLQFFFYAGWLKVAEQLINPFGEDDDDFETNFLIDRCFQVSMLAVDEMYDDLAMLEKDLYWDAAEARA
notes: PDB 6VX7 is the cited earlier bBest2 structure, another construct; also called bBEST2 345; AS truncated bovine Best2; source: HEK293-F cells, Bacmam system, purified (GDN extraction, Ni-NTA, TEV cleavage, gel filtration)
B4: wild-type human bestrophin-1 (natural protein)
chain: MTITYTSQVANARLGSFSRLLLCWRGSIYKLLYGEFLIFLLCYYIIRFIYRLALTEEQQLMFEKLTLYCDSYIQLIPISFVLGFYVTLVVTRWWNQYENLPWPDRLMSLVSGFVEGKDEQGRLLRRTLIRYANLGNVLILRSVSTAVYKRFPSAQHLVQAGFMTPAEHKQLEKLSLPHNMFWVPWVWFANLSMKAWLGGRIRDPILLQSLLNEMNTLRTQCGHLYAYDWISIPLVYTQVVTVAVYSFFLTCLVGRQFLNPAKAYPGHELDLVVPVFTFLQFFFYVGWLKVAEQLINPFGEDDDDFETNWIVDRNLQVSLLAVDEMHQDLPRMEPDMYWNKPEPQPPYTAASAQFRRASFMGSTFNISLNKEEMEFQPNQEDEEDAHAGIIGRFLGLQSHDHHPPRANSRTKLLWPKRESLLHEGLPKNHKAAKQNVRGQEDNKAWKLKAVDAFKSAPLYQRPGYYSAPQTPLSPTPMFFPLEPSAPSKLHSVTGIDTKDKSLKTVSSGAKKSFELLSESDGALMEHPEVSQVRRKTVEFNLTDMPEIPENHLKEPLEQSPTNIHTTLKDHMDPYWALENRDEAHS
notes: human bestrophin-1 (hBest1), wild type; also called hBest1; WT hBest1; source: HEK293-F cells, Bacmam system, purified (GDN extraction, Ni-NTA, TEV cleavage, gel filtration)

Assays:
[1] = target: the molecule itself; assay: cryo-EM structure; single-particle cryo-EM of purified channel in GDN (200 mM NaCl, 40 mM HEPES pH 7.8, 0.005% GDN); without Ca2+ (EGTA) or after a 30 s spike of 1 uM or 5 mM Ca2+; C5 symmetry refinement
[2] = target: the molecule itself; assay: cryo-EM structure; single-particle cryo-EM of purified truncated channel (residues 1-345) in GDN, in the presence of 5 mM Ca2+; C5 symmetry refinement

Row | Protein | stoichiometry N [1] | binding result [2]
1 | B1 | 5 | 
2 | B2 |  | binds
3 | B3 |  | binds
4 | B4 | 5 | 
